The values that follow come from publication PMC5566480.

Numbering of substitutions follows the chain as printed. Names may count otherwise.

In this assay the target is Recombinant human Toll-like receptor 2 (rTLR2), O60603. The assay is described as follows: ELISA. The following applies: chain shown with the change;; parent: est. 0.37; read off a plot. A general note: ELISA stands for enzyme-linked immunosorbent assay.
Recombinant human Toll-like receptor 2 (rTLR2), O60603, sequence (O60603 21-784): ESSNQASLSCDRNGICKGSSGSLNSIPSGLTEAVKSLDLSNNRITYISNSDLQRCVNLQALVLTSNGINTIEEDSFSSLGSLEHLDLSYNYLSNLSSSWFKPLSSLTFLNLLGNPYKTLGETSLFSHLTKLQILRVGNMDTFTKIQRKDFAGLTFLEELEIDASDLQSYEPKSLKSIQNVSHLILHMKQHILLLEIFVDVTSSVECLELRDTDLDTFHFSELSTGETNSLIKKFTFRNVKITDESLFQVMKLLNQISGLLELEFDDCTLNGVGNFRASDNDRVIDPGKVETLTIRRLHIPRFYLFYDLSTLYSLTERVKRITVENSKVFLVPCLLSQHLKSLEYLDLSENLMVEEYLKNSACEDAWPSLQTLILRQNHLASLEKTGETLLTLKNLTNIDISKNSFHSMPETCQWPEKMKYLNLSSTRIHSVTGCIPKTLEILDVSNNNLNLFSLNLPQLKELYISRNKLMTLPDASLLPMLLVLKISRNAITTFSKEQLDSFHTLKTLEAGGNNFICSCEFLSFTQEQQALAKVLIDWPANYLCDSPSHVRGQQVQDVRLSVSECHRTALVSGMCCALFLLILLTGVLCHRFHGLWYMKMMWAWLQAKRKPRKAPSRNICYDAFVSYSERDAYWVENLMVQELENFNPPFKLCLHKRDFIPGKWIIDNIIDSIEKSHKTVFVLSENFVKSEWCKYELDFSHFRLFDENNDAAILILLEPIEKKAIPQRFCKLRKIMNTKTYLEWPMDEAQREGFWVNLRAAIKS

B1: Recombinant LipL32 wild type, mature form (rLipL32; 21-272) V35S (protein)
chain: GAFGGLPSLKSSFSLSESTVPGTNETVKTFLPYGSVINYYGYVKPGQAPDGLVDGNKKAYYLYVWIPAVIAEMGVRMISPTGEIGEPGDGDLVSDAFKAATPEEKSMPHWFDTWIRVERMSAIMPDQIAKAAKAKPVQKLDDDDDGDDTYKEERHNKYNSLTRIKIPNPPKSFDDLKNIDTKKLLVRGLYRISFTTYKPGEVKGSFVASVGLLFPPGIPGVSPLIHSNPEELQKQAIAAEESLKKAASDATK
With B1, the response was 0.25 OD450nm.

B2: Recombinant LipL32 wild type, mature form (rLipL32; 21-272) F34S (protein)
chain: B1 chain with F13S, S14V
In the case of B2, the response came to 0.31 OD450nm.

B3: Recombinant LipL32 wild type, mature form (rLipL32; 21-272) L36S (protein)
chain: B1 chain with S14V, L15S
Regarding B3, the response amounted to 0.23 OD450nm.
